The results in this text go back to patent US5914109.

Read-outs that look alike come from different tables or passages of the source.

Test [1] concerns the target gp41 of HIVMN (virus) (HIV-1 strain MN).
For test [2], the target named is gp120 of HIVMN (HIV-1 strain MN) (UniProt P05877).
Test [3] has the same target. This is another data set of the same source.
The target of test [4] is 20-mer V3 peptide of HIVSF2 (HIV-1 isolate SF-2). The test can be described thus: competition ELISA in solution at equilibrium (Friguet method). In general terms: An ELISA detects its analyte on a solid surface through an enzyme-linked reagent.
Test [5] has as its target 20-mer V3 peptide of HIVMN (American Bio-Technologies) (HIV-1 strain MN). The test is described as above.
Test [6] addresses hexapeptide KRIHIG (pin 7) (HIV-1 strain MN). As to the kind of experiment: pin ELISA, hexapeptide on plastic pin.
For test [7], the target named is hexapeptide AFYTTK (pin 16) (HIV-1 strain MN). The test can be described thus: pin ELISA, hexapeptide on plastic pin.
Test [8] has as its target hexapeptide TKNIIG (pin 20) (HIV-1 strain MN). As to the kind of experiment: pin ELISA, hexapeptide on plastic pin.
The target of test [9] is hexapeptide YTTKNI (pin 18) (HIV-1 strain MN). The test can be described thus: pin ELISA, hexapeptide on plastic pin.
The target in test [10] is hexapeptide HIGPGR (pin 10) (HIV-1 strain MN). The test can be described thus: pin ELISA, hexapeptide on plastic pin.
In test [11] the target is hexapeptide YNKRKR (pin 3) (HIV-1 strain MN). As to the kind of experiment: pin ELISA, hexapeptide on plastic pin.
Test [12] concerns the target hexapeptide RKRIHI (pin 6) (HIV-1 strain MN). As to the kind of experiment: pin ELISA, hexapeptide on plastic pin.
For test [13], the target named is hexapeptide GRAFYT (pin 14) (HIV-1 strain MN). The test can be described thus: pin ELISA, hexapeptide on plastic pin.
Test [14] deals with hexapeptide KRKRIH (pin 5) (HIV-1 strain MN). The test can be described thus: pin ELISA, hexapeptide on plastic pin.
Test [15] deals with hexapeptide PGRAFY (pin 13) (HIV-1 strain MN). The test can be described thus: pin ELISA, hexapeptide on plastic pin.
Test [16] addresses hexapeptide TTKNII (pin 19) (HIV-1 strain MN). As to the kind of experiment: pin ELISA, hexapeptide on plastic pin.
Test [17] deals with hexapeptide RAFYTT (pin 15) (HIV-1 strain MN). The test can be described thus: pin ELISA, hexapeptide on plastic pin.
In test [18] the target is hexapeptide IGPGRA (pin 11) (HIV-1 strain MN). As to the kind of experiment: pin ELISA, hexapeptide on plastic pin.
Test [19] has as its target hexapeptide NKRKRI (pin 4) (HIV-1 strain MN). As to the kind of experiment: pin ELISA, hexapeptide on plastic pin.
Test [20] concerns the target hexapeptide GPGRAF (pin 12) (HIV-1 strain MN). The test can be described thus: pin ELISA, hexapeptide on plastic pin.
Test [21] has as its target hexapeptide RIHIGP (pin 8) (HIV-1 strain MN). As to the kind of experiment: pin ELISA, hexapeptide on plastic pin.
Test [22] has as its target hexapeptide FYTTKN (pin 17) (HIV-1 strain MN). As to the kind of experiment: pin ELISA, hexapeptide on plastic pin.
In test [23] the target is hexapeptide IHIGPG (pin 9) (HIV-1 strain MN). The test can be described thus: pin ELISA, hexapeptide on plastic pin.
In test [24] the target is recombinant gp120 protein of HIVSF2 (produced in CHO cells) (HIV-1 isolate SF-2) (UniProt P03378). The test can be described thus: Friguet method; reference: the 20-mer SF-2 peptide.
The target is the same in test [25]. The test can be described thus: competition ELISA in solution at equilibrium (Friguet method).
Test [26] has as its target 20-mer V3 peptide of HIVSF2 (HIV-1 isolate SF-2). Described as above. The source holds these as a separate data set.
Test [27] addresses 20-mer V3 peptide of HIVMN (American Bio-Technologies) (HIV-1 strain MN). The test can be described thus: Friguet ELISA method, V3 MN peptide.
Test [28] concerns the target gp120 of HIV-1 isolate RF (HIV-1 isolate RF) (UniProt P04579).
For test [29], the target named is gp120 of HIV-1 isolate SF-2 (virus) (HIV-1 isolate SF-2) (UniProt P03378).
Test [30] addresses gp120 of HTLV-IIIB (HIV-1 isolate IIIB).
Test [31] concerns the target gp120 of HIVMN (HIV-1 strain MN) (UniProt P05877). This is another data set of the same source.
Test [32] concerns the target gp120 of HIV-1 isolate AL-1 (HIV-1 isolate AL-1).
The target of test [33] is gp120 of HIV-1 isolate WMJ-2 (HIV-1 isolate WMJ-2).
Test [34] addresses 23-mer peptide of the gp120 V3 loop of the MN strain of HIV-1 (HIV-1 strain MN). The test can be described thus: ELISA on V3 peptide coated plates, mAb at 10 µg/ml.
For test [35], the target named is 20-mer V3 peptide of HIVSF2 (HIV-1 isolate SF-2). The test can be described thus: ELISA on V3 peptide coated plates, mAb at 10 µg/ml.
In test [36] the target is V3-NY5 peptide (HIV-1 isolate NY5). As to the kind of experiment: ELISA on V3 peptide coated plates, mAb at 10 µg/ml.
In test [37] the target is V3-SC peptide (HIV-1 isolate SC). The test can be described thus: ELISA on V3 peptide coated plates, mAb at 10 µg/ml.
Test [38] has as its target V3-WM52 peptide (HIV-1 isolate WM52). The test can be described thus: ELISA on V3 peptide coated plates, mAb at 10 µg/ml.
Test [39] deals with V3-CDC4 peptide (HIV-1 isolate CDC4). The test can be described thus: ELISA on V3 peptide coated plates, mAb at 10 µg/ml.
Test [40] has as its target 22-mer V3 peptide of HXB2 (HIV-1 HXB2 (IIIB)). The test can be described thus: competition ELISA in solution at equilibrium (Friguet method).
Test [41] deals with 20-mer V3 peptide of HIVSF2 (HIV-1 isolate SF-2). The test can be described thus: competition ELISA in solution (Friguet method); reference: the MN peptide.

As for human mAb 50-69 (antibody), in test [1], the neutralizing antibody titer (50%), MT-2 plaque assay, 1 hr, no complement (titer (1:x dilution)) was determined as 3 and the neutralizing antibody titer (50%), MT-2 plaque assay, 18 hr with human complement (titer (1:x dilution)) worked out at 3.

A word on the Kd: it is the constant that tells how readily two partners part at equilibrium. The substance human mAb 257-D (antibody) had a 50% neutralization, CEM-SS syncytium-forming assay, IgG concentration in test [2] of 0.01 µg/mL. In [2], this substance returned a 90% neutralization, CEM-SS syncytium-forming assay, IgG concentration of 0.88 µg/mL. The same substance gave a neutralizing antibody titer (50%), MT-2 plaque assay, 1 hr, no complement in test [3] of 3 ng/mL. This substance also showed a neutralizing antibody titer (50%), MT-2 plaque assay, 18 hr with human complement in [3] of 0.3 ng/mL. Also, the Kd is 220 nM in test [4]; 230 nM in [5]; 41.6 nM in test [25]; 630 nM in test [26]; 230 nM in test [27]. Further, the ELISA reactivity (absorbance units) (absorbance units) amounted to 1.59 in [6]; 0.233 in [7]; 0.164 in test [8]; 0.259 in test [9]; 0.156 in [10]; 0.256 in test [11]. Also, the ELISA reactivity (absorbance units) (absorbance units) in [12] is 1.78; in test [13], 0.272; in test [14] it was 0.259; in test [15], 0.456; in test [16], 0.219; in test [17], 0.333. Also, the ELISA reactivity (absorbance units) (absorbance units) is 0.163 in test [18]; 0.288 in test [19]; 0.208 in test [20]; 0.276 in [21]; 0.273 in test [22]; 0.13 in test [23]. Besides, the Difference (Kd of the SF-2 peptide against SF-2 recombinant) in [24] stood at 15 fold.

On to human mAb 268-D (antibody), for which the 50% neutralization, CEM-SS syncytium-forming assay, IgG concentration in test [2] stood at 0.1 µg/mL. For the same substance, the 90% neutralization, CEM-SS syncytium-forming assay, IgG concentration in [2] turned out to be 1 µg/mL. This substance showed a neutralizing antibody titer (50%), MT-2 plaque assay, 1 hr, no complement in test [3] of 23 ng/mL. In addition, in [3], the neutralizing antibody titer (50%), MT-2 plaque assay, 18 hr with human complement turned out to be 1.1 ng/mL. The Kd is 2300 nM in [4], 590 nM in test [5] and 590 nM in [27]. In addition, the ELISA reactivity (absorbance units) (absorbance units) came out at 0.179 in [6]; 0.222 in [7]; 0.141 in [8]; 0.259 in test [9]; 1.01 in test [10]; 0.243 in test [11]. For the same substance, the ELISA reactivity (absorbance units) (absorbance units) is 0.252 in test [12]; 0.288 in [13]; 0.239 in [14]; 0.346 in test [15]; 0.212 in test [16]; 0.35 in test [17]. Moreover, the ELISA reactivity (absorbance units) (absorbance units) came to 0.164 in test [18]; 0.283 in test [19]; 0.132 in test [20]; 0.135 in test [21]; 0.274 in [22]; 0.132 in test [23].

Turning to human mAb 412-D (antibody), in test [2], the 50% neutralization, CEM-SS syncytium-forming assay, IgG concentration came to 4.69 µg/mL and the 90% neutralization, CEM-SS syncytium-forming assay, IgG concentration is greater than 10 µg/mL. The substance also came in with a Kd in test [5] of 9100 nM. In [27], the Kd worked out at 9100 nM.

Take human mAb 537-D (antibody): the neutralization endpoint, MT-4 cell killing assay in test [28] was greater than 50 µg/mL; in [29], greater than 5 µg/mL; in [30], greater than 50 µg/mL; in test [31] it was 6.25 µg/mL; in test [32], 3.13 µg/mL; in test [33] it was greater than 50 µg/mL. In test [2], this substance yielded a 50% neutralization, CEM-SS syncytium-forming assay, IgG concentration of 2.69 µg/mL. For the same substance, in test [2], the 90% neutralization, CEM-SS syncytium-forming assay, IgG concentration is greater than 10 µg/mL. For the same substance, the minimum antigen concentration giving positive results (µg/ml of V3 peptide used to coat) was determined as 0.6 in [34]; 1 in [35]; 0.8 in test [36]; 1 in test [37]; 2 in [38]; 1 in [39]. Besides, the Kd in [4] was 8500 nM; in test [5], 1300 nM; in test [40] it was greater than 100000 nM; in test [27], 1300 nM. In addition, the fold difference of Kd between the two V3 peptides (MN and SF-2) in test [41] was determined as 7 fold.
